Test [1] addresses Hemoglobin. As to the kind of experiment: competitive ECL 5-FU assay, Bi-61C6 beads and TAG Plus 1-5C-5-FU-BSA, hemoglobin 10 mg/mL in plasma without 5-FU.
In test [2] the target is Hemoglobin. The test can be described thus: competitive ECL 5-FU assay, Bi-61C6 beads and TAG Plus 1-5C-5-FU-BSA, hemoglobin 10 mg/mL in plasma with 75 ng/mL spiked 5-FU.
Test [3] has as its target Hemoglobin. As to the kind of experiment: competitive ECL 5-FU assay, Bi-61C6 beads and TAG Plus 1-5C-5-FU-BSA, hemoglobin 10 mg/mL in plasma with 1000 ng/mL spiked 5-FU.

These results are taken from patent publication US20150079612A1.

B1: monoclonal antibody 61C6 (antibody, mouse IgG2b, kappa, V domains shown)
VH: QIQLVQSGPELKKPGETVTISCKASGYTLTNYGMNWVKQAPGKGLKWMGWINTNSGEPTYVEEFKGRFAFSLETSVSTVYLQISDLKHEDTATYFCARWGPHFNAYGWFAYWGQGTLVTVSA
VL: YIQMTQTASSLSASLGDRVTISCRASQDIWNYLNWYQQKPDGTIKLLIYYKSRLHSGVPSRFSGSGSGIDFSLTISNLEQEDFATYFCQQGHTLPWTFGGGSKLEIKR
modifications: biotinylated on primary amines with EZ-Link Sulfo-NHS-LC-Biotin (positions not stated)
With B1, the % Cross-React in test [1] is 0%; in test [2], 0%; in test [3] it was -0.1%.
